Numbering of substitutions follows the chain as printed. Where two headings read alike, the source gives them in different places.
B1: PR302334-27 (antibody, human IgG1, kappa, V domains shown)
VH: EVQLVESGGGLVQPGGSLRLSCAASGFTFSTYAMSWVRQAPGKGLEWVASIRSGGTTYYPDSVKGRFTISRDNSKNSLYLQMNSLRAEDTAVYYCTRGIDWGQGTTVTVSS
VL: DIQMTQSSLSASVSLGDRVTITCKASQSVNNDVAWYQQKPGKAPRLLIYYASNRYTGVPSRFSGSGSGTDFTFTISSLQPEDLATYFCQQDYSSWTFGGGTKVEIKR
B2: PR302334-14 (antibody, human IgG1, kappa, V domains shown)
VH: B1 VH with S77T
VL: NIVMTQTPKFLLVSAGDRITITCKASQSVNNDVAWYQQKPGQSPKLLIYYASNRYTGVPDRFTGSGYGTDFTFTISTVQAEDLAVYFCQQDYSSWTFGGGTNLEIKR
B3: PR302334-24 (antibody, human IgG1, kappa, V domains shown)
VH: B1 VH with Q13K, S74A
VL: DIVMTQSPDSLAVSLGERATINCKASQSVNNDVAWYQQKPGQPPRLLIYYASNRYTGVPDRFSGSGSGTDFTLTISSLQAEDLAVYFCQQDYSSWTFGGGTKVEIKR
B4: PR302334-10 (antibody, human IgG1, kappa, V domains shown)
VH: B1 VH with S77T
VL: B3 VL
B5: PR302334-6 (antibody, human IgG1, kappa, V domains shown)
VH: EVKLVESGGGLVKPGGSLKLSCAASGFTFSTYAMSWVRQTPEKRLEWVASIRSGGTTYYPDSVKGRFTISRDNARNILYLQMSSLRSEDTAIYYCTRGIDWGQGTLVTVSA
VL: B1 VL
B6: PR302334-7 (antibody, human IgG1, kappa, V domains shown)
VH: B1 VH with S77T
VL: EIVMTQSPATLSVSPGERATLSCKASQSVNNDVAWYQQKPGQAPRLLIYYASNRYTGIPARFSGSGSGTEFTLTISSLQSEDFAVYYCQQDYSSWTFGGGTKVEIKR
B7: PR302334-11 (antibody, human IgG1, kappa, V domains shown)
VH: B1 VH with S77T
VL: B1 VL with L83I, F87Y
B8: PR302334-15 (antibody, human IgG1, kappa, V domains shown)
VH: B1 VH with Q13K, A49S, S74A, T96A
VL: B2 VL
B9: PR302334-16 (antibody, human IgG1, kappa, V domains shown)
VH: B1 VH with Q13K, S74A
VL: B2 VL
B10: PR302334-9 (antibody, human IgG1, kappa, V domains shown)
VH: B1 VH with S77T
VL: B3 VL with L83V, F87Y
B11: PR302334-8 (antibody, human IgG1, kappa, V domains shown)
VH: B1 VH with S77T
VL: B6 VL with F83L, Y87F
B12: PR302334-5 (antibody, human IgG1, kappa, V domains shown)
VH: B5 VH
VL: B1 VL with L83I, F87Y
B13: PR302334-12 (antibody, human IgG1, kappa, V domains shown)
VH: B1 VH with S77T
VL: B1 VL
B14: PR302334-1 (antibody, human IgG1, kappa, V domains shown)
VH: B5 VH
VL: B6 VL
B15: PR302334-2 (antibody, human IgG1, kappa, V domains shown)
VH: B5 VH
VL: B6 VL with F83L, Y87F
B16: PR302334-4 (antibody, human IgG1, kappa, V domains shown)
VH: B5 VH
VL: B3 VL
B17: PR302334-3 (antibody, human IgG1, kappa, V domains shown)
VH: B5 VH
VL: B3 VL with L83V, F87Y
B18: PR302341-25 (antibody, human IgG1, kappa, V domains shown)
VH: QVQLVQSGAEVKKPGASVKVSCKASGYTFTDYFMKWVRQAPGQRLEWMGVINPNNGDIFYNQKFKGRVTITVDKSASTAYMELSSLRSEDTAVYYCARGTDRALFAYWGQGTLVTVSS
VL: DVVMTQTPLSLSVTPGQPASISCRSGQSIVHSDGNTYLEWYLQKPGQSPQLLIYKVSNRFSGVPDRFSGSGSGTDFTLKISRVEAEDLGVYYCFQGSHIPWTFGGGTKVEIKR
B19: PR302341-18 (antibody, human IgG1, kappa, V domains shown)
VH: B18 VH with R44G, I70M, A76I, S85R, E89D
VL: DVLMTQTPLSLPVSLGDQASISCRSGQSIVHSDGNTYLEWYLQRPGQSPRLLIYKVSNRFSGVPDRFSGSGSGTDFTLKISRVGAEDLGIYYCFQGSHIPWTFGGGTKLEVKR
B20: PR302341-17 (antibody, human IgG1, kappa, V domains shown)
VH: B18 VH with R44G, I70M, V72R, K74T, A76I, S85R, E89D
VL: B19 VL
B21: PR302341-27 (antibody, human IgG1, kappa, V domains shown)
VH: B18 VH with R44G, I70M, A76I, S85R, E89D
VL: B18 VL
B22: PR302341-22 (antibody, human IgG1, kappa, V domains shown)
VH: B18 VH with R44G, I70M, V72R, K74T, A76I, S85R, E89D
VL: B18 VL with T7S, S12P, P15L, L42Q, K44R, Q50R
B23: PR302341-23 (antibody, human IgG1, kappa, V domains shown)
VH: B18 VH with R44G, I70M, A76I, S85R, E89D
VL: B18 VL with T7S, S12P, P15L, L42Q, K44R, Q50R
B24: PR302341-26 (antibody, human IgG1, kappa, V domains shown)
VH: B18 VH with R44G, I70M, A76I, S85R, E89D
VL: B18 VL with L11S, S12P, P15L, L42Q, K44R, S48P, Q50R, S72A

Assays:
[1] = biological target: T1, corticotropin-releasing hormone (CRH) peptide (human and mouse, UniProt P01143 145-185 (rat entry), not fully specified); experiment: cell-based or functional assay
T1 peptide: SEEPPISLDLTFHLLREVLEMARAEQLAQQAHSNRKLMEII

[2] = biological target: T1, corticotropin-releasing hormone (CRH) …; experiment: cell-based or functional assay

Binder | hCRHR1-Luc 0.5 nM CRH IC50 [1] [pM] | hCRHR1-Luc 0.5 nM CRH IC50 [2] [pM]
B1 | 1360 | 
B2 | 468 | 
B3 | 778 | 
B4 | 839 | 
B5 | 404 | 
B6 | 996 | 
B7 | 1000 | 
B8 | 5120 | 
B9 | 339 | 
B10 | 1420 | 
B11 | 816 | 
B12 | 325 | 
B13 | 986 | 
B14 | 624 | 
B15 | 597 | 
B16 | 553 | 
B17 | 542 | 
B18 |  | 711
B19 |  | 169
B20 |  | 104
B21 |  | 518
B22 |  | 243
B23 |  | 43
B24 |  | 273

Reference: patent US20250197490A1 (HBM ALPHA THERAPEUTICS, published 2025)
